Laboratory results published in paper doi:10.1101/2024.03.23.586376 (bioRxiv, 2024).

B1: Δ30-TFEB, mutant TFEB construct lacking the first 30 amino acids (RagC binding site), C-terminal GFP-tagged (domain or fragment, UniProt P19484 31-476, looked up)
chain: MHYMQQQQQQQQQQLGGPPTPAINTPVHFQSPPPVPGEVLKVQSYLENPTSYHLQQSQHQKVREYLSETYGNKFAAHISPAQGSPKPPPAASPGVRAGHVLSSSAGNSAPNSPMAMLHIGSNPERELDDVIDNIMRLDDVLGYINPEMQMPNTLPLSSSHLNVYSSDPQVTASLVGVTSSSCPADLTQKRELTDAESRALAKERQKKDNHNLIERRRRFNINDRIKELGMLIPKANDLDVRWNKGTILKASVDYIRRMQKDLQKSRELENHSRRLEMTNKQLWLRIQELEMQARVHGLPTTSPSGMNMAELAQQVVKQELPSEEGPGEALMLGAEVPDPEPLPALPPQAPLPLPTQPPSPFHHLDFSHSLSFGGREDEGPPGYPEPLAPGHGSPFPSLSKKDLDLMLLDDSLLPLASDPLLSTMSPEASKASSRRSSFSMEEGDVL
B2: wild-type TFEB (transcription factor EB), C-terminal GFP-tagged construct (natural protein, UniProt P19484 1-476, looked up)
chain: MASRIGLRMQLMREQAQQEEQRERMQQQAVMHYMQQQQQQQQQQLGGPPTPAINTPVHFQSPPPVPGEVLKVQSYLENPTSYHLQQSQHQKVREYLSETYGNKFAAHISPAQGSPKPPPAASPGVRAGHVLSSSAGNSAPNSPMAMLHIGSNPERELDDVIDNIMRLDDVLGYINPEMQMPNTLPLSSSHLNVYSSDPQVTASLVGVTSSSCPADLTQKRELTDAESRALAKERQKKDNHNLIERRRRFNINDRIKELGMLIPKANDLDVRWNKGTILKASVDYIRRMQKDLQKSRELENHSRRLEMTNKQLWLRIQELEMQARVHGLPTTSPSGMNMAELAQQVVKQELPSEEGPGEALMLGAEVPDPEPLPALPPQAPLPLPTQPPSPFHHLDFSHSLSFGGREDEGPPGYPEPLAPGHGSPFPSLSKKDLDLMLLDDSLLPLASDPLLSTMSPEASKASSRRSSFSMEEGDVL

Biological target: RagC (human (endogenous in H1HeLa), UniProt Q9HB90 1-399)
Sequence (Q9HB90 whole entry): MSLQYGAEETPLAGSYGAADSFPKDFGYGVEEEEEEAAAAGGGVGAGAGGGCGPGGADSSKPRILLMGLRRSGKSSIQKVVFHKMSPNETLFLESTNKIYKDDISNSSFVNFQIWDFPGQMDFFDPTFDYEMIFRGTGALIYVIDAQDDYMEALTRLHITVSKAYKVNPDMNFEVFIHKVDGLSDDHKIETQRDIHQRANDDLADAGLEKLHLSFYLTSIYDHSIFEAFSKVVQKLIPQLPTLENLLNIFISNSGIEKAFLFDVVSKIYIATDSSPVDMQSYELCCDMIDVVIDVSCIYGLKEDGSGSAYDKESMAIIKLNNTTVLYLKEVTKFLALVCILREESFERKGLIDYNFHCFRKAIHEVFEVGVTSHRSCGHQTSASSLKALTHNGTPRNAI
Experiment: co-IP

Binder	TFEB/RagC ratio in the co-IP (densitometry), EV-D68-infected cells	TFEB/RagC ratio in the co-IP (densitometry), mock-infected cells
B1	0.22	0.18
B2	0.4	1.04
